This is an account of results in US20230032087A1.

The target of this assay is CD19 on KILR Raji cells (UniProt P15391). The experiment in a line: cell-based or functional assay.
CD19 on KILR Raji cells, sequence (P15391 20-556 limits assumed): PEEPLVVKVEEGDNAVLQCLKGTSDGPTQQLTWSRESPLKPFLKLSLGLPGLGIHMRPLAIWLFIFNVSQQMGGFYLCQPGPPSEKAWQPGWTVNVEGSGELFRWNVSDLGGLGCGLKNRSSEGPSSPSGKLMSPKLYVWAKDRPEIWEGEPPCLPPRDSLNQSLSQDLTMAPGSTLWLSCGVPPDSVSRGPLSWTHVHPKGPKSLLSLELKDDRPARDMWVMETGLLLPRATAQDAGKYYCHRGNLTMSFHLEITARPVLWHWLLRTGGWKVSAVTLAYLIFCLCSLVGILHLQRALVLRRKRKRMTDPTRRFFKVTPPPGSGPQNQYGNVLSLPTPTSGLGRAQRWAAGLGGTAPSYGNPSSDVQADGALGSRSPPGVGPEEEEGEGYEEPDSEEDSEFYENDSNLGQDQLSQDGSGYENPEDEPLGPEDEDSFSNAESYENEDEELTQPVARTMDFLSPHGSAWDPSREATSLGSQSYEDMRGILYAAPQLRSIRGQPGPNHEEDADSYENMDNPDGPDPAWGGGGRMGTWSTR

The substance blinatumomab (bispecific antibody) had an EC50 of T cell-redirected killing of KILR Raji cells, +HSA (15 mg/mL) of 10.8 ng/mL and an EC50 of T cell-redirected killing of KILR Raji cells, -HSA of 2.85 ng/mL.
